Measurements published in US7378234.

Target: soluble HLA-B*0702 (human)

## SPGALVVGVI (modifications not checked) [Ipep 1838]
  % competition: 30%
